Holding throughout (test): SPR
One test deals with T1, Evasin-1 (Rhipicephalus sanguineus, UniProt P0C8E7 21-114).
T1 sequence (looked up): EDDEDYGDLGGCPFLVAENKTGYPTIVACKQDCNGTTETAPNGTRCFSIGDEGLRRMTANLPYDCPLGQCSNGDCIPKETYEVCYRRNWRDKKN

For a further test, the target named is T2, CXCL1 (human, UniProt P09341 35-107).
T2 sequence (looked up): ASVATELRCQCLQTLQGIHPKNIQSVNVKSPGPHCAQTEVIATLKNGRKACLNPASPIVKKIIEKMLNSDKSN

The next test addresses T3, MIP-2 (mouse, UniProt P10889 28-100).
T3 sequence (looked up): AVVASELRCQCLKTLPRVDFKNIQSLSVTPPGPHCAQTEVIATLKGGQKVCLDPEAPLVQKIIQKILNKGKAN

A further test has as its target T4, KC (mouse, UniProt P12850 25-96).
T4 sequence (looked up): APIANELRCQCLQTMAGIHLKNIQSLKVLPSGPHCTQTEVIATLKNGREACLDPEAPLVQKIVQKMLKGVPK

B1: CCL4 (ligand, human, UniProt P13236 24-92, looked up)
chain: APMGSDPPTACCFSYTARKLPRNFVVDYYETSSLCSQPAVVFQTKRSKQVCADPSESWVQEYVYDLELN
By Kd is commonly meant the free concentration of one partner at which half of the binding sites on the other are occupied at equilibrium, for simple one-to-one binding. High values mean lower affinity, low ones higher affinity. The koff is the first-order rate constant of dissociation. High values mean fast dissociation, low ones slow dissociation. One may read the kon as the second-order rate constant of association. Higher therefore signals fast association. B1: in the test with Evasin-1, the Kd was found to be 0.51 nM, the koff came out at 0.0022 ± 0.18 s⁻¹ and the kon stood at 4.29e+06 ± 2.58 M⁻¹ s⁻¹.

B2: murine MIP-1α (ligand, mouse, UniProt P10855 24-92, looked up)
chain: APYGADTPTACCFSYSRKIPRQFIVDYFETSSLCSQPGVIFLTKRNRQICADSKETWVQEYITDLELNA
Regarding B2, in the test with Evasin-1, the Kd came out at 0.08 nM, the off-rate (koff) was 0.00118 ± 1.07 s⁻¹ and the on-rate constant (kon) was determined as 1.56e+07 ± 16 M⁻¹ s⁻¹.

B3: CCL3 (ligand, human, UniProt P10147 24-92, looked up)
chain: SLAADTPTACCFSYTSRQIPQNFIADYFETSSQCSKPGVIFLTKRSRQVCADPSEEWVQKYVSDLELSA
Regarding B3, in the test with Evasin-1, binding was characterised by a dissociation constant (Kd) of 0.12 nM, the koff came out at 0.00243 ± 0.61 s⁻¹ and the kon was 1.38e+07 ± 3.54 M⁻¹ s⁻¹.

B4: murine MIP-1β (ligand, mouse, UniProt P14097 24-92, looked up)
chain: APMGSDPPTSCCFSYTSRQLHRSFVMDYYETSSLCSKPAVVFLTKRGRQICANPSEPWVTEYMSDLELN
On to B4, for which, in the test with Evasin-1, the Kd worked out at 0.15 nM, the dissociation rate constant (koff) was found to be 0.00058 ± 0.12 s⁻¹ and the on-rate constant (kon) was determined as 3.84e+06 ± 1.42 M⁻¹ s⁻¹.

B5: Evasin-3 (HEK) (natural protein, Rhipicephalus sanguineus, UniProt P0C8E8 21-86, looked up)
chain: LVSTIESRTSGDGADNFDVVSCNKNCTSGQNECPEGCFCGLLGQNKKGHCYKIIGNLSGEPPVVRR
modifications: also: extensively glycosylated
In the test with CXCL1, B5 returned a dissociation constant Kd of 0.34 nM, an off-rate constant (koff) of 0.00142 ± 0.36 s⁻¹ and an association rate constant (kon) of 3.95e+06 ± 4.23 M⁻¹ s⁻¹. Moreover, in the test with MIP-2, the dissociation constant Kd was 0.4 nM, the koff was 0.00033 ± 0.11 s⁻¹ and the kon came out at 790000 ± 0.9 M⁻¹ s⁻¹. Moreover, in the test with KC, the dissociation constant Kd was determined as 2.25 nM, the off-rate constant (koff) was 0.00144 ± 0.35 s⁻¹ and the association rate constant (kon) was 640000 ± 0.58 M⁻¹ s⁻¹.

B6: Evasin-3 (E. coli) (natural protein, Rhipicephalus sanguineus, UniProt P0C8E8 21-86, looked up)
chain: LVSTIESRTSGDGADNFDVVSCNKNCTSGQNECPEGCFCGLLGQNKKGHCYKIIGNLSGEPPVVRR
For the molecule B6, the equilibrium dissociation constant (Kd) came to 0.85 nM with CXCL1, 0.64 nM in the test with MIP-2 and 5.78 nM in the test with KC. In addition, the off-rate (koff) with CXCL1 came out at 0.00222 ± 0.49 s⁻¹; with MIP-2 it was 0.00065 ± 0.25 s⁻¹; in the test with KC it was 0.00185 ± 0.43 s⁻¹. In addition, the kon amounted to 2.61e+06 ± 0.69 M⁻¹ s⁻¹ in the test with CXCL1, 1.02e+06 ± 0.56 M⁻¹ s⁻¹ with MIP-2 and 320000 ± 0.17 M⁻¹ s⁻¹ with KC.

B7: CCL3L1 (ligand, human, UniProt P16619 24-93, looked up)
chain: APLAADTPTACCFSYTSRQIPQNFIADYFETSSQCSKPSVIFLTKRGRQVCADPSEEWVQKYVSDLELSA
In the test with Evasin-1, B7 displayed a Kd of 0.05 nM, a koff of 0.00067 ± 0.13 s⁻¹ and an on-rate (kon) of 1.32e+07 ± 2.9 M⁻¹ s⁻¹.

The values above are taken from PMC2526197 (The Journal of Experimental Medicine, 2008).
